Experimental data published in the supplement of paper PMC9170038.

System: MS2 coat protein
Experiment: apparent KD of MS2 coat protein; designed switch direction (-1 OFF switch, 1 ON switch): -1; higher = weaker reporter binding
Summary of the method: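 The reported apparent KD is a per-design median over clusters, from curve fits of normalised cluster fluorescence. Protein titrations used SNAP-549-labelled MS2 coat protein, doubled from 0.7 or 1.5 nM to 3 µM, in Tris-HCl pH 7.5 buffer with KCl, MgCl2, BSA, DTT, tRNA and Tween-20, with no input, 200 uM small-molecule ligand, or an oligonucleotide input. The RNA switches were transcribed on Illumina chips by stalled E. coli RNA polymerase.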

[1] = input ligand: microRNA oligo, concentration not stated
[2] = Eterna round: R95, input ligand: FMN 200 uM
[3] = Eterna round: R95, input ligand: microRNA oligo, concentration not stated
[4] = Eterna round: R95, input ligand: none

Sequence	apparent KD of MS2 coat protein (input ligand: FMN 200 uM) [nM]	apparent KD of MS2 coat protein [1] [nM]	apparent KD of MS2 coat protein (input ligand: none) [nM]	apparent KD of MS2 coat protein [2] [nM]	apparent KD of MS2 coat protein [3] [nM]	apparent KD of MS2 coat protein [4] [nM]
CACCGUUACAGAGGAUAUGUUACAUGAGGAUCACCCAUGUAAUAAAUGAGAAUUUCGAAUGUAAUACAGAAGGCUGGAAUCGGC [Ostracism 75 - Jieux - Exclusion NG 2] (Eterna round: R96, puzzle: Exclusion NG 2)	38.3	15.8	21.3	–	–	–
UUAAUUAAUGUAGGAUAUGCAAGGCGAACCUAAGCAGAAGGACAUGUGGAUCACCCAUGUAAUGCGGUCUGCGUACAGAUCGCU [salish99_ex1_NG1_001] (Eterna round: R96, puzzle: Exclusion NG 1)	271	1170	1270	–	–	–
GCUUGAGCAGGAUAUACAAUGAGCUUGAGAAAUCGAGUUCGACAUGAGGAUCACCCAUGUAGAAGGGUUCGAGU [-27.3, -25 kcal, A 31% 1 and 1bis] (Eterna round: R97, puzzle: Exclusion 2)	38.4	–	24.3	–	–	–
AAAGGCUAAGGAUAUGCACACAUAAACAUGAGGAUCACCCAUGUGUUCCCAGCAACCAUAGCAGAAGGUAGCGAAA [Rarebeve] (puzzle: Exclusion 5)	–	–	–	76.5	70.1	68.7
UCUGGUCGAGGAUAUACGUGAGGUGCUUCGGCACCAGGUCUACAUGAGGAUCACCCAUGUAGAAGGCGACCAGA [EX2 #61] (Eterna round: R97, puzzle: Exclusion 2)	62.1	–	16.7	–	–	–
GUACCAAAUGUAGGAUAUGGAUCCGAUUAGGAUCCAGAAGGACAUGAGGAUCACCCAUGUACAUGAGGAUCACCCAUUAGGUAC [Fiskers ExNg1 - 11] (Eterna round: R96, puzzle: Exclusion NG 1)	97.2	26.3	34.2	–	–	–
AUAACAAGCUUUUUGUUCGUAGAACAUGACGCUCGAGUCACAUGAGGAUCACCCAUGUCAUCCAGAUUGAUAGUUGA [JR_SV3TOV2_Sub059] (puzzle: Sensor v3, turn-off variant 2)	–	–	–	35.5	47.3	44.3
UGAUCUAGCGGAGGAUAUACAUGAGGAUCACCCAUGUAGUAGUGAGUACCGUAGUGCUCACUUGUGUAGAAGGCCGCUAGAUCU [JL ENG2 3.60] (Eterna round: R96, puzzle: Exclusion NG 2)	17.9	9.86	13.5	–	–	–
AAUACCGGUCUGCCUAAAGACAUGAGGAUCACCCAUGUCUGAUUCUCAACAGGCCUUUUGCUUCUCUUAACUACACA [Vetilage] (puzzle: Sensor v3, turn-off variant 1)	–	–	–	13.9	23.1	12.6
AUGUGGGUAAGAAGGUGAAGAUAGAGCGUACGUUAUGGAACAUGAGGAUCACCCAUGUAGCUUUUUGCUCGUCUUAU [JR_SV3TOV2_Sub033] (puzzle: Sensor v3, turn-off variant 2)	–	–	–	17.6	61.8	18.2
GAUCUGACAGGAUAUACAUGAGGAUCACCCAUGUACGAGCUAGCGAAAGCUAGCUCAGGUAGAAGGGUCAGAUC [Ex3 dot plot directed v5] (puzzle: Exclusion 3)	–	–	–	–	11.6	–
GGAUCGAGUGUGAGGAUAUACCUAUGGAUACAUAGGUAGAAGGCACAUGAGGAUCACCCAUGUCCUAACGGUCC [Eli bmx4 4.15] (Eterna round: R97, puzzle: Brourd's mod of Exclusion 4)	933	–	308	–	–	–
GAAUAGUGAGGAUAUACUUGCAGUGUACCUCGGGUGAUCUCACUUGAGGAUCACCCAAGUAGAAGGCGCGAGGG [EX2 #22] (Eterna round: R97, puzzle: Exclusion 2)	20.8	–	9.03	–	–	–
UCCAGUAUAUGGAGAUUUUACAUGAGGAUCACCCAUGUUGGGACAGCUUUUUGCUUGUCUUAUCCUACUUCGUGUGU [Design #4] (Eterna round: R97, puzzle: Sensor, turn-off variant 1)	51	–	56.3	–	–	–
CUAGCGAAUGUAGGAUAUCGGACUGUUUCAGUCUGAGAAGGACAUGAGGAUCACCCAUGUAUAGCUACGUGAGUAGCACGCUAG [JL ENG1 3.90] (Eterna round: R96, puzzle: Exclusion NG 1)	27.6	16.1	21.7	–	–	–
GCUUCUGGGCAAGGAUAUCCUGCGCUGUUCUGGUUCGUGUCUGUCACAUGAGGAUCACCCAUGUGGGAGAAGGUGCCUGUGGUG [Design 69] (Eterna round: R96, puzzle: Exclusion NG 2)	18.8	11.3	19.5	–	–	–
AAAACUAACACGAAAGUGUUAGAAUAAUAAGCUUGUGGUACAUGAGGAUCACCCAUGUCCUCAUAAGCUCGUCUUAU [Mat - Sensor v3 - Turn-off var 2 - D45] (puzzle: Sensor v3, turn-off variant 2)	–	–	–	28	46.4	25.8

Sequence	apparent KD of MS2 coat protein (input ligand: FMN 200 uM) [nM]	apparent KD of MS2 coat protein [1] [nM]	apparent KD of MS2 coat protein (input ligand: none) [nM]	apparent KD of MS2 coat protein [2] [nM]	apparent KD of MS2 coat protein [3] [nM]	apparent KD of MS2 coat protein [4] [nM]
GUCUCAGCUGAGGAUAUAAACUCCCUUGAGGGUUUAGAAGGCAGUACAUGAGGAUCACCCAUGUGGUUCGUUUG [eternacac ex6r4 sub27] (Eterna round: R97, puzzle: Exclusion 6)	486	–	139	–	–	–
UAAUGUAUAUAGGAUAUCUAGCUGGAAACAGCUAGAGAAGGAUGUACAUGAGGAUCACCCAUGUAAAUCAGUGA [Ex6/14-B1] (Eterna round: R97, puzzle: Exclusion 6)	239	–	55.4	–	–	–
AAAUAACGAGGAUAUAGGGUCCGGAACAUGAGGAUCACCCAUGUAUUGGAAACAACGUGGUUAGAAGGCGUUGCCC [EX5 A.15] (Eterna round: R97, puzzle: Exclusion 5)	25.6	–	28.7	–	–	–
AACCGGCGGACCGAAGCUUUUUGCUUGUUUUAUACUACUACAUGAGGAUCACCCAUGUCGUGGUGGUCUGUUGUAGA [Bibe] (puzzle: Sensor v3, turn-off variant 2)	–	–	–	38.9	15.7	33.2
UCUCCACAUGAGGAUCACCCAUGUCAGGAUAUGCUGCGGCUACUAAAAGAGAAUUGCGGCAGAAGGGACACGCC [EX1 B.25] (Eterna round: R97, puzzle: Exclusion 1)	68	–	20.2	–	–	–
CCCAUGUCAGGAUAUUAAUUGAGCAGAAAGCCCUGUUCACUUGAGAAGGGACAUGAGGAUCACCCAUGUAAAAC [Belexeedte] (Eterna round: R97, puzzle: Exclusion 4)	19.2	–	507	–	–	–
AAUACCCGAGGAUAUCUAAUUCGGCACAUGAGGAUCACCCAUGUGAUCUGACCUAGCCGAGGAGAAGGCGGGUCAG [Errizabe] (puzzle: Exclusion 5)	–	–	–	25.8	12.9	12.1
AGAUAGUGCUGAGGAUAUCAGAAUAGAAAGAAAUGAGAAGGCGGACAUGAGGAUCACCCAUGUGAGGUCUUGAGACUACAUGGU [Prohibition 38 - Jieux - Exclusion NG 1] (Eterna round: R96, puzzle: Exclusion NG 1)	210	65.8	77.3	–	–	–
ACCAAGCUAUGCACGUCUGACAUGAGGAUCACCCAUGUAGCCGGUCUCGGAAGGAGACAGGCUCCAGGUGGCUCAGA [Eternabot (Original) Solution 37] (Eterna round: R97, puzzle: Sensor, turn-off variant 1)	683	–	667	–	–	–
CCCAUGUCAGGAUAUCUAAGAGAGGAUCAGCCCUCUCCUCCGGAGAAGGGACAUGAGGAUCACCCAUGUAAAAC [Zasorequ] (puzzle: Exclusion 4)	–	–	–	30.5	145	204
AAGUCGAGCGUGAGGAUAUCGUUCGAACGACCGAACGAGAAGGCACAUGAGGAUCACCCAUGUGAUUCAGUUCA [Brourd's EX4 #46] (Eterna round: R97, puzzle: Brourd's mod of Exclusion 4)	39.8	–	17.8	–	–	–
CAGCUGAAUGUCAGGAUAUCUAGAGCCUCGGCUCUAGAGAAGGGACAUGAGGAUCACCCAUGUCACUCCAGCUG [BmEx4/3-B2] (Eterna round: R97, puzzle: Brourd's mod of Exclusion 4)	22.4	–	17.8	–	–	–
GCACGGUUGCUAGGAUAUCCUUGCGAUUAGCAAGGAGAAGGAGCACAUGAGGAUCACCCAUGUACCUCAAUAAUCCUUCCGUGC [Eli exng1 - 028] (Eterna round: R96, puzzle: Exclusion NG 1)	12.9	13.2	15.6	–	–	–
AAAUAGCUAGAGGAUAUUGGAUAGGAUUUACUACGAGAAGGUUAGACAUGAGGAUCACCCAUGUUGUGUUGGGA [EX6 #18] (Eterna round: R97, puzzle: Exclusion 6)	55.2	–	53.4	–	–	–
AUUAAUCAGCAGGAUAUAAGUAUCUGAAGGUGGUUAGAAGGGCUGACAUGAGGAUCACCCAUGUGCUCUUCGUG [Vevetigeat] (puzzle: Exclusion 6)	–	–	–	–	12.4	–
CUUGUGUGAGGAUAUGAAUUGCCUGGACAUACAGGCUCCUGUCAGAAGGCACAUGAGGAUCACCCAUGUGGGCA [Andiriso] (Eterna round: R97, puzzle: Exclusion 4)	98.1	–	411	–	–	–
